# Measurements taken from US20220348652A1 (ANTAIMMU BIOMED, published 2022).
# Changes are numbered by the printed parent chain.
# B1: scFv CD47-8 (scFv, V domains shown)
# VL: DIQMTQSPSSLSASVGDRVTITCRASQDVHYAVAWYQQKPGKAPKLLIYGTNRLYPGVPSRFSGSGSGTDFTLTISSLQPEDFATYYCQQHSNFPLTFGQGTKVEIKR
# VH: EVQLVESGGGLVQPGGSLRLSCAASGFTINNFYIHWVRQAPGKGLEWVASIWPWSGETGYADSVKGRFTIGADTSKNTAYLQMNSLRAEDTAVYYCARGGFAMDFWGQGTLVTVSS
# notes: scFv
# B2: scFv CD47-5 (scFv, V domains shown)
# VL: B1 VL with Y31N, A32K, G50S, T51A, N52T, S92F, F94Y
# VH: B1 VH with N30T, F32Y, Y33W, S50H, W54G, S55V, E57D, G59D, G71S, F105L
# notes: scFv
# B3: scFv CD47-6 (scFv, V domains shown)
# VL: B1 VL with H30S, Y31S, A32R, G50Y, N52S, R53N, P56S, S92F, F94Y
# VH: EVQLVESGGGLVQPGGSLRLSCAASGFTITNWWIHWVRQAPGKGLEWVATISPYSGDTHYADSVKGRFTISADTSKNTAYLQMNSLRAEDTAVYYCARGGYAMDHWGQGTLVTVSS
# notes: scFv
# B4: scFv CD47-14 (scFv, V domains shown)
# VL: B1 VL with H30S, Y31T, A32K, G50F, N52R, R53N, P56S, F94Y, L96V
# VH: B3 VH with T30S, T50G, D57K, H59D, H105L
# notes: scFv
# B5: scFv CD47-9 (scFv, V domains shown)
# VL: B1 VL with H30S, Y31N, A32R, P56T, S92F, F94Y, L96I
# VH: B3 VH with T30N, N31S, T50K, Y54F, S55N, H105I
# notes: scFv
# B6: scFv CD47-4 (scFv, V domains shown)
# VL: B1 VL with D28S, H30D, Y31N, A32G, G50S, T51A, N52T, P59L, H91S, N93T
# VH: EVQLVESGGGLVQPGGSLRLSCAASGFTINDYWIHWVRQAPGKGLEWVAHIWPTYGGTHYADSVKGRFTISADTSKNTAYLQMNSLRAEDAAVYYCARGGYSLDIWGQGTLVTVSS
# notes: scFv
# B7: Antibody R23 (antibody, from another filing, V domains shown)
# VH: QVQLQESGPGLVKPSETLSLTCTVSGGSIEHYYWSWIRQPPGKGLEWIGYIYYSGSTNYNPSLKSRVTISVDTSKNQFSLKLSSVTAADTAVYYCARGKTGSAAWGQGTLVTVSS
# VL: DIQMTQSPSSVSASVGDRVTITCRASQGISRWLAWYQQKPGKAPKLLIYAASSLQSGVPSRFSGSGSGTDFTLTISSLQPEDFATYYCQQTVSFPITFGGGTKVEIKR
# B8: CD47-30 IgG (antibody, V domains shown)
# VH: B3 VH with T30N, T50W, S52D, Y54F, S55N, T58S, H59D, Y101F, M103L
# VL: B1 VL with H30S, Y31H, A32Y, G50S, N52S, N93S, F94Y, L96I
# notes: IgG made in CHO cells; constant domains as for m19; also called antibody CD47-30
# B9: CD47-7 IgG (antibody, V domains shown)
# VH: B1 VH with N30T, F32Y, W54G, S55Y, E57N, G71S, F101Y, A102S
# VL: B1 VL with H30Y, Y31T, A32R, G50Y, N52R, R53N, P56S, H91A, S92A, F94Y
# notes: IgG made in CHO cells; constant domains as for m19; also called antibody CD47-7
# B10: CD47-2 IgG (antibody, V domains shown)
# VH: B1 VH with N30S, F32S, Y33F, S50Y, E57S, G71S, A102S, F105H
# VL: B1 VL with H30S, Y31S, A32K, H91S, F94Y
# notes: IgG made in CHO cells from the scFv; The VL-CL junction was not checked (VL ends in ...EIKR); also called antibody CD47-2
# B11: CD47-26 IgG (antibody, V domains shown)
# VH: B3 VH with W32F, W33Y, T50K, S52T, S55N, A97T, H105Y
# VL: B1 VL with H30S, Y31N, A32Y, N52S, N93S, F94Y
# notes: IgG made in CHO cells; constant domains as for m19; also called antibody CD47-26
# B12: scFv CD47-22 (scFv, V domains shown)
# VL: B1 VL with Y31S, A32W, Y49S, G50R, T51A, N52T, R53W, Y55A, P56S, H91S
# VH: EVQLVESGGGLVQPGGSLRLSCAASGFTINDYGIHWVRQAPGKGLEWVAGIGPFWGSTFYADSVKGRFTISADTSKNTAYLQMNSLRAEDTAVYYCARWMWGRWSAMDYWGQGTLVTVSS
# notes: scFv
# B13: scFv CD47-3 (scFv, V domains shown)
# VL: DIQMTQSPSSLSASVGDRVTITCRASQDVSNRVAWYQQKPGKAPKLLISRANGLASGVPSRFSGSGSGTDFTLTISSLQPEDFATYYCQQGSHFPITFGQGTKVEIKR
# VH: B3 VH with T30S, T50H, S52G, Y54T, S55V, D57K, H59Y, Y101F
# notes: scFv
# B14: scFv CD47-20 (scFv, V domains shown)
# VL: B1 VL with Y31N, A32K, G50Y, N52S, R53N, P56S, S92F, N93T, F94Y
# VH: EVQLVESGGGLVQPGGSLRLSCAASGFTISNYYIHWVRQAPGKGLEWVAGIWPSGGSTSYADSVKGRFTISADTSKNTAYLQMNSLRAEDTAVYYCTRGGYAMDYWGQGTLVTVSS
# notes: scFv
# B15: scFv CD47-31 (scFv, V domains shown)
# VL: B1 VL with Y31S, A32K, G50S, P56S, F94Y, L96V
# VH: B14 VH with Y32W, Y33W, G50A, W52N, S54F, G55N, S57R, S59D
# notes: scFv
# B16: scFv CD47-32 (scFv, V domains shown)
# VL: B1 VL with A32T, P56T, S92F, L96I
# VH: B3 VH with T30N, W32F, T50N, Y54F, S55T, H59R, H105I
# notes: scFv
# B17: scFv CD47-27 (scFv, V domains shown)
# VL: B13 VL with S30H, R32G, S49F, A51T, N52S, G53W, A55L, H93S, I96F
# VH: B3 VH with T30N, W32Y, T50R, Y54F, S55D, D57G, H59Y, H105L
# notes: scFv
# B18: scFv CD47-28 (scFv, V domains shown)
# VL: B1 VL with Y31G, A32K, G50Y, T51A, N52R, R53N, P56S, T85S, H91Y, S92F
# VH: B14 VH with S30T, Y32W, Y33W, G50E, W52N, S54F, S57N, S59Y
# notes: scFv
# B19: scFv CD47-29 (scFv, V domains shown)
# VL: B1 VL with Y31S, A32K, G50S, S92F, N93T, F94Y
# VH: B3 VH with T50G, S52T, H59Y, M103I, H105N
# notes: scFv
# Target: T1, human CD47 polypeptide (Met1-Pro139 of human CD47 fused with a Fc region) (human, UniProt Q08722 19-139)
# T1 construct: range 1-139; Made in HEK293 cells and purified from the supernatant; also called CD47 protein; not shown: Fc region
# Test: ELISA on coated CD47 polypeptide (FIG. 1)
row,binding result,Binder
1,binds,B1
2,binds,B2
3,binds,B3
4,binds,B4
5,binds,B5
6,binds,B6

# Target: T2, human CD47 expressed on CHO-CD47 cells (human, UniProt Q08722 19-323)
# T2 construct: whole, on cells; also called cellular CD47; full-length CD47
# Test: flow cytometry, IgG on CHO-CD47 cells
# Protocol: The anti-CD47 scFvs were respectively expressed in their IgG formats in accordance with the procedure described in Materials and Methods. CHO cells expressing CD47 (CHO-CD47 cells) and wild-type CHO cells (CHO-WT cells) were respectively treated with anti-CD47 IgGs. After washing, the binding of the anti-CD47 IgGs was detected using a polyclonal APC-conjugated anti-human IgG antibody. Relative MFI was measured by flow cytometry. Antibody R23, a reference antibody constructed according to the sequences of ADI29341 disclosed in US20200181259A1, served as a positive control in this study.
row,EC50,Binder
1,4.18 µg/mL,B7
2,2.67 µg/mL,B8
3,2.44 µg/mL,B9
4,2.34 µg/mL,B10
5,2.05 µg/mL,B11

# Target: T2, human CD47 expressed on CHO-CD47 cells
# Test: flow cytometry on CHO-CD47 cells (MFI, FIG. 2)
# Protocol: The binding of the anti-CD47 scFvs to the surface of CHO-CD47 cells was determined by flow cytometry, and the data was expressed as mean fluorescence intensity (MFI).
row,binding result,Binder
1,binds,B12
2,binds,B13
3,binds,B14
4,binds,B15
5,binds,B1
6,binds,B2
7,binds,B16
8,binds,B17
9,binds,B3
10,binds,B18
11,binds,B4
12,binds,B5
13,binds,B19
14,binds,B6

# Target: T1, human CD47 polypeptide (Met1-Pro139 of …)
# Test: single colony ELISA, scFv supernatant on coated CD47 polypeptide
# Protocol: Phages were infected into E. coli host cells followed by plating the infected E. coli cells on agar plate. Each colony was picked up and cultured in 2×YT (yeast extract tryptone) medium containing 100 μg/ml ampicillin with vigorous shacking at 37° C. After OD₆₀₀ of the culture was greater than 1, isopropyl β-d-1-thiogalactopyranoside (IPTG) was added to each culture and the final concentration of IPTG was 1 mM. The cultures were incubated at 37° C. overnight, and then centrifuged 4,000×g for 10 minutes. The scFvs were secreted and collected from the supernatant. The collected scFvs were added onto a 96-well plate coated with CD47 polypeptide followed by the analysis of ELISA so as to determining the binding affinity of the selected scFvs and CD47 polypeptide.
row,binding result,Binder
1,binds,B12
2,binds,B13
3,binds,B14
4,binds,B15
5,binds,B16
6,binds,B17
7,binds,B18
8,binds,B19
